B1: LgBiT-TEAD1-Myc (TEAD1 aa 194-411), wild type [not stated] / SmBiT-TAZ-Flag (TAZ aa 13-119), wild type [not stated] (parent)
chain 1: PGQQVIHVTQDLDTDLEALFNSVMNPKPSSWRKKILPESFFKEPDSGSHSRQSSTDSSGGHPGPRLAGGAQHVRSHSSPASLQLGTGAGAAGSPAQQHAHLRQQSYD
chain 2: RSIGTTKLRLVEFSAFLEQQRDPDSYNKHLFVHIGHANHSYSDPLLESVDIRQIYDKFPEKKGGLKELFGKGPQNAFFLVKFWADLNCNIQDDAGAFYGVTSQYESSENMTVTCSTKVCSFGKQVVEKVETEYARFENGRFVYRINRSPMCEYMINFIHKLKHLPEKYMMNSVLENFTILLVVTNRDTQETLLCMACVFEVSNSEHGAQHHIYRLVKD

Variants of: B1
Assay: NanoBiT assay (split-luciferase biosensor) in lysates of transfected HEK293T cells
Conditions: with SmBiT-TAZ-Flag (TAZ aa 13-119), 48 h after transfection, equal amounts of each biosensor plasmid, read off a plot

Row | response (fold over LgBiT-TEAD1 alone) | Variant
1 | 37 | chain 2 E47A V49A I54A

— publication PMC6826516
